The text below walks through data of the RNAGym collection of RNA variant scans (doi:10.7554/elife.80360).

B1: CPEB3 Ribozyme (parent)
chain: GGGGGCCACAGCAGAAGCGUUCACGUCGCGGCCCCUGUCAGAUUCUGGUGAAUCUGCGAAUUCUGCUGU

In this data set the parent is B1. The data set can be described thus: self-cleavage, relative activity (ratio to wild type); higher = more cleavage; co-transcriptional.
As to GGGGGCCACAGCAGAAGCGUUCACGUCGCGGCCCCUGUCAGAUUCUGGUGAAUCUGCUACUUCUGCUGU, the self-cleavage came to 0.372.

With GGGGGCCACAGCAGAAGCGUUCACGUCGCGGCCCCUGUCAGAUUCUGGUGAAUCUGUGAAUUUUGCUGU, the self-cleavage is 0.34.

GGGGGCCACAGCAGAAGCGUUCACGUCGCGGCCCCUGUCAGAUUCUGGUGAAUCUGCAAAUACUGCUGU: the self-cleavage was 0.939. With GGGGGCCACAGCAGAAGCGUUCACGUCGCGGCCCCUGUCAGAUUCUGGUGAAUCUGCAAAUGCUGCUGU, the self-cleavage was determined as 0.884. For the variant GGGGGCCACAGCAGAAGCGUUCACGUCGCGGCCCCUGUCAGAUUCUGGUGAAUCUGCUAAUUCUGGUGU, the self-cleavage is 0.974. On to GGGGGCCACAGCAGAAGCGUUCACGUCGCGGCCCCUGUCAGAUUCUGGUGAAUCUGUGAAUUCUGUUGU, for which the self-cleavage was 0.42.

For GGGGGCCACAGCAGAAGCGUUCACGUCGCGGCCCCUGUCAGAUUCUGGUGAAUCUGUGAAUUCUGCUCU, the self-cleavage stood at 0.365. On to GGGGGCCACAGCAGAAGCGUUCACGUCGCGGCCCCUGUCAGAUUCUGGUGAAUCUGUGAAUUCUGCUGC, for which the self-cleavage came out at 0.554. Under GGGGGCCACAGCAGAAGCGUUCACGUCGCGGCCCCUGUCAGAUUCUGGUGAAUCUGCAAAUUCGGCUGU stands 0.955; under GGGGGCCACAGCAGAAGCGUUCACGUCGCGGCCCCUGUCAGAUUCUGGUGAAUCUGUGCAUUCUGCUGU, 0.376; under GGGGGCCACAGCAGAAGCGUUCACGUCGCGGCCCCUGUCAGAUUCUGGUGAAUCUGCAAAUUAUGCUGU, 0.748.

With GGGGGCCACAGCAGAAGCGUUCACGUCGCGGCCCCUGUCAGAUUCUGGUGAAUCUGCCAAUUCUGCGGU, the self-cleavage came to 1.01.

GGGGGCCACAGCAGAAGCGUUCACGUCGCGGCCCCUGUCAGAUUCUGGUGAAUCUGUGAAUGCUGCUGU: the self-cleavage amounted to 0.327. Regarding GGGGGCCACAGCAGAAGCGUUCACGUCGCGGCCCCUGUCAGAUUCUGGUGAAUCUGCAAAUUCUCCUGU, the self-cleavage came out at 0.619. In the case of GGGGGCCACAGCAGAAGCGUUCACGUCGCGGCCCCUGUCAGAUUCUGGUGAAUCUGCAAAUUCUUCUGU it was 0.743; in that of GGGGGCCACAGCAGAAGCGUUCACGUCGCGGCCCCUGUCAGAUUCUGGUGAAUCUGCCAAUUCUGUUGU, 1.02.

In the case of GGGGGCCACAGCAGAAGCGUUCACGUCGCGGCCCCUGUCAGAUUCUGGUGAAUCUGUGAAAUCUGCUGU, the self-cleavage was 0.406. On to GGGGGCCACAGCAGAAGCGUUCACGUCGCGGCCCCUGUCAGAUUCUGGUGAAUCUGCAAAUUCUGCGGU, for which the self-cleavage amounted to 0.988.

Regarding GGGGGCCACAGCAGAAGCGUUCACGUCGCGGCCCCUGUCAGAUUCUGGUGAAUCUGCAAAUUCUGCUCU, the self-cleavage stood at 0.978. Consider GGGGGCCACAGCAGAAGCGUUCACGUCGCGGCCCCUGUCAGAUUCUGGUGAAUCUGCAAAUUCUGCUUU, for which the self-cleavage amounted to 0.962.

For GGGGGCCACAGCAGAAGCGUUCACGUCGCGGCCCCUGUCAGAUUCUGGUGAAUCUGCUGAUUCUGCUGU, the self-cleavage amounted to 1.02. For the variant GGGGGCCACAGCAGAAGCGUUCACGUCGCGGCCCCUGUCAGAUUCUGGUGAAUCUGCCAUUUCUGCUGU, the self-cleavage is 0.402. In the case of GGGGGCCACAGCAGAAGCGUUCACGUCGCGGCCCCUGUCAGAUUCUGGUGAAUCUGUGAAUUCAGCUGU it was 0.392. In the case of GGGGGCCACAGCAGAAGCGUUCACGUCGCGGCCCCUGUCAGAUUCUGGUGAAUCUGUGAAUUCCGCUGU it was 0.556; in that of GGGGGCCACAGCAGAAGCGUUCACGUCGCGGCCCCUGUCAGAUUCUGGUGAAUCUGCUAAUUAUGCUGU, 0.951; in that of GGGGGCCACAGCAGAAGCGUUCACGUCGCGGCCCCUGUCAGAUUCUGGUGAAUCUGUGAAUUCUGCUGU, 0.375. Consider GGGGGCCACAGCAGAAGCGUUCACGUCGCGGCCCCUGUCAGAUUCUGGUGAAUCUGCCAACUCUGCUGU, for which the self-cleavage was determined as 0.844. In the case of GGGGGCCACAGCAGAAGCGUUCACGUCGCGGCCCCUGUCAGAUUCUGGUGAAUCUGCCAAUUCUCCUGU it was 0.703; in that of GGGGGCCACAGCAGAAGCGUUCACGUCGCGGCCCCUGUCAGAUUCUGGUGAAUCUGCCAAUUCUGCUGC, 1.07. Under GGGGGCCACAGCAGAAGCGUUCACGUCGCGGCCCCUGUCAGAUUCUGGUGAAUCUGCUAAUUCUACUGU stands 0.961. For GGGGGCCACAGCAGAAGCGUUCACGUCGCGGCCCCUGUCAGAUUCUGGUGAAUCUGCUAAUUCUUCUGU, the self-cleavage was found to be 0.948. Consider GGGGGCCACAGCAGAAGCGUUCACGUCGCGGCCCCUGUCAGAUUCUGGUGAAUCUGCAAAUUCUGCUGC, for which the self-cleavage stood at 1.06.

Regarding GGGGGCCACAGCAGAAGCGUUCACGUCGCGGCCCCUGUCAGAUUCUGGUGAAUCUGCCAAUUCGGCUGU, the self-cleavage stood at 0.893.

As to GGGGGCCACAGCAGAAGCGUUCACGUCGCGGCCCCUGUCAGAUUCUGGUGAAUCUGCCAAUGCUGCUGU, the self-cleavage was found to be 0.965. In the case of GGGGGCCACAGCAGAAGCGUUCACGUCGCGGCCCCUGUCAGAUUCUGGUGAAUCUGCCAAUUCUGCUGU it was 0.985. In the case of GGGGGCCACAGCAGAAGCGUUCACGUCGCGGCCCCUGUCAGAUUCUGGUGAAUCUGCAAAUUCUGCUGU, the self-cleavage came out at 0.965.

GGGGGCCACAGCAGAAGCGUUCACGUCGCGGCCCCUGUCAGAUUCUGGUGAAUCUGCUAAUUCUGCUGU: the self-cleavage worked out at 0.994. Take GGGGGCCACAGCAGAAGCGUUCACGUCGCGGCCCCUGUCAGAUUCUGGUGAAUCUGUGAAUUCUUCUGU: the self-cleavage is 0.375. In the case of GGGGGCCACAGCAGAAGCGUUCACGUCGCGGCCCCUGUCAGAUUCUGGUGAAUCUGCUAAAUCUGCUGU, the self-cleavage amounted to 0.929.
